Data as given in publication PMC8421139.

What was measured:
Experiment in all cases: EMSA
GST-TDRD3 Tudor = GST-TDRD3 Tudor (UniProt Q9H7E2 555-615)
GST-TDRD3 UBA = biological target: T1, GST-TDRD3 UBA (UniProt Q9H7E2 193-233)
T1 chain: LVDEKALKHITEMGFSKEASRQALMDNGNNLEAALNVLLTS

TDRD3 E691K = TDRD3 E691K (UniProt A0ACI8Q7A3 1-93+Q9H7E2:1-651, E598K;internal_change)

B1: ssDNA probe (R-loop forward oligo) (ssDNA)
DNA: CCTCGCAAACTACTTAGATGTCATCCGCGAGC
Q: Does B1 bind (GST-TDRD3 Tudor)?
A: Result: no binding

Q: Does B1 bind (GST-TDRD3 UBA)?
A: Result: no binding

Q: Does B1 bind (TDRD3 E691K)?
A: Result: binds
